# Source: PMC6589164
# How the values were obtained:
# [1] = molecular target: pyrene-labelled rabbit skeletal F-actin (rabbit) (UniProt P68135); experiment: other fluorescence titration
# [2] = molecular target: RLC-depleted porcine cardiac myosin (porcine) (UniProt P79293); experiment: co-sedimentation
Kd [1],stoichiometry N [1],Kd [2],Molecule
–,–,2920 nM,"recombinant human cardiac (ventricular) myosin regulatory light chain, wild type (natural protein) MAPKKAKKRAGGANSNVFSMFEQTQIQEFKEAFTIMDQNRDGFIDKNDLRDTFAALGRVNVKNEEIDEMIKEAPGPINFTVFLTMFGEKLKGADPEETILNAFKVFDPEGKGVLKADYVREMLTTQAERFSKEEVDQMFAAFPPDVTGNLDYKNLVHIITHGEEKD"
–,–,8140 nM,"recombinant human cardiac (ventricular) myosin regulatory light chain, A13T mutant (natural protein) MAPKKAKKRAGGTNSNVFSMFEQTQIQEFKEAFTIMDQNRDGFIDKNDLRDTFAALGRVNVKNEEIDEMIKEAPGPINFTVFLTMFGEKLKGADPEETILNAFKVFDPEGKGVLKADYVREMLTTQAERFSKEEVDQMFAAFPPDVTGNLDYKNLVHIITHGEEKD"

# The remaining lines, values behind:
Molecule,Kd [1],stoichiometry N [1],Kd [2]
WT-RLC-reconstituted porcine cardiac myosin (from UniProt P79293 1-1935; P10916 1-166) (complex),18.9 nM,0.8,–
A13T-RLC-reconstituted porcine cardiac myosin (from UniProt P79293 1-1935; P10916 1-166) (complex),24.4 nM,0.9,–
